Test results published in patent US20140093973A1 (BOARD OF REGENTS OF THE UNIVERSITY OF OKLAHOMA, published 2014).
Where two headings read alike, the source gives them in different places. Ends that are not written are not given here.

How the values were obtained:
[1] = molecular target: soluble HLA-A*0201 (sHLA-A*0201) (human); experiment: FP screen
[2] = molecular target: T1, soluble HLA-B*2705 (sHLA-B*2705) (human); experiment: FP screen
T1 construct: Recombinant soluble class I with endogenous peptides, made as m1; negative control

soluble HLA-A*0101 [3] = molecular target: T2, soluble HLA-A*0101 (human); experiment: FP screen
T2 construct: Member of the panel of 53 single-specificity sHLA

soluble HLA-A*3601 [4] = molecular target: T3, soluble HLA-A*3601 (human); experiment: FP screen
T3 construct: Member of the panel of 53 single-specificity sHLA

soluble HLA-A*2601 [5] = molecular target: T4, soluble HLA-A*2601 (human); experiment: FP screen
T4 construct: Member of the panel of 53 single-specificity sHLA

soluble HLA-B*1512 [6] = molecular target: T5, soluble HLA-B*1512 (human); experiment: FP screen
T5 construct: Member of the panel of 53 single-specificity sHLA

[7] = molecular target: T6, soluble HLA-A*6901 (sHLA-A*6901) (human); experiment: FP screen
T6 construct: Recombinant soluble class I with endogenous peptides, made as m1

soluble HLA-A*2402 [8] = molecular target: T7, soluble HLA-A*2402 (human); experiment: FP screen
T7 construct: Member of the panel of 53 single-specificity sHLA

soluble HLA-A*2301 [9] = molecular target: T8, soluble HLA-A*2301 (human); experiment: FP screen
T8 construct: Member of the panel of 53 single-specificity sHLA

soluble HLA-B*4501 [10] = molecular target: T9, soluble HLA-B*4501 (human); experiment: FP screen
T9 construct: Member of the panel of 53 single-specificity sHLA

soluble HLA-A*3002 [11] = molecular target: T10, soluble HLA-A*3002 (human); experiment: FP screen
T10 construct: Member of the panel of 53 single-specificity sHLA

soluble HLA-B*1801 [12] = molecular target: T11, soluble HLA-B*1801 (human); experiment: FP screen
T11 construct: Member of the panel of 53 single-specificity sHLA

soluble HLA-B*4002 [13] = molecular target: T12, soluble HLA-B*4002 (human); experiment: FP screen
T12 construct: Member of the panel of 53 single-specificity sHLA

soluble HLA-B*4001 [14] = molecular target: T13, soluble HLA-B*4001 (human); experiment: FP screen
T13 construct: Member of the panel of 53 single-specificity sHLA

soluble HLA-B*4402 [15] = molecular target: T14, soluble HLA-B*4402 (human); experiment: FP screen
T14 construct: Member of the panel of 53 single-specificity sHLA

[16] = molecular target: T15, soluble HLA-A*4301 (sHLA-A*4301) (human); experiment: FP screen
T15 construct: Recombinant soluble class I with endogenous peptides, made as m1

soluble HLA-A*2902 [17] = molecular target: T16, soluble HLA-A*2902 (human); experiment: FP screen of 53 sHLA with FITC-peptide
T16 construct: Member of the panel of 53 single-specificity sHLA

soluble HLA-A*3402 [18] = molecular target: T17, soluble HLA-A*3402 (human); experiment: FP screen of 53 sHLA with FITC-peptide
T17 construct: Member of the panel of 53 single-specificity sHLA

soluble HLA-B*1501 [19] = molecular target: T18, soluble HLA-B*1501 (human); experiment: FP screen of 53 sHLA with FITC-peptide
T18 construct: Member of the panel of 53 single-specificity sHLA

soluble HLA-A*0301 [20] = molecular target: T19, soluble HLA-A*0301 (human); experiment: FP screen of 53 sHLA with FITC-peptide
T19 construct: Member of the panel of 53 single-specificity sHLA

soluble HLA-A*6601 [21] = molecular target: T20, soluble HLA-A*6601 (human); experiment: FP screen of 53 sHLA with FITC-peptide
T20 construct: Member of the panel of 53 single-specificity sHLA

[22] = molecular target: soluble HLA-A*0201 (sHLA-A*0201) (human); experiment: FP screen; remark: listed apart in the source
[23] = molecular target: T1, soluble HLA-B*2705 (sHLA-B*2705); experiment: FP screen; remark: listed apart in the source
[24] = molecular target: T21, soluble HLA-A*6801 (sHLA-A*6801) (human); experiment: FP screen
T21 construct: Recombinant soluble class I with endogenous peptides, made as m1

soluble HLA-B*1302 = molecular target: T22, soluble HLA-B*1302 (human); experiment: FP screen
T22 construct: Member of the panel of 53 single-specificity sHLA

soluble HLA-B*1512 [25] = molecular target: T5, soluble HLA-B*1512; experiment: FP screen; remark: listed apart in the source
soluble HLA-A*0301 [26] = molecular target: T19, soluble HLA-A*0301; experiment: FP screen
[27] = molecular target: T6, soluble HLA-A*6901 (sHLA-A*6901); experiment: FP screen; remark: listed apart in the source
soluble HLA-A*2402 [28] = molecular target: T7, soluble HLA-A*2402; experiment: FP screen; remark: listed apart in the source
soluble HLA-A*2301 [29] = molecular target: T8, soluble HLA-A*2301; experiment: FP screen; remark: listed apart in the source
soluble HLA-A*6601 [30] = molecular target: T20, soluble HLA-A*6601; experiment: FP screen
soluble HLA-B*4501 [31] = molecular target: T9, soluble HLA-B*4501; experiment: FP screen; remark: listed apart in the source
soluble HLA-A*3002 [32] = molecular target: T10, soluble HLA-A*3002; experiment: FP screen; remark: listed apart in the source
soluble HLA-B*1801 [33] = molecular target: T11, soluble HLA-B*1801; experiment: FP screen; remark: listed apart in the source
soluble HLA-B*4002 [34] = molecular target: T12, soluble HLA-B*4002; experiment: FP screen; remark: listed apart in the source
soluble HLA-B*4001 [35] = molecular target: T13, soluble HLA-B*4001; experiment: FP screen; remark: listed apart in the source
soluble HLA-B*4402 [36] = molecular target: T14, soluble HLA-B*4402; experiment: FP screen; remark: listed apart in the source
soluble HLA-A*0101 [37] = molecular target: T2, soluble HLA-A*0101; experiment: FP screen of 53 sHLA with FITC-peptide
soluble HLA-A*2902 [38] = molecular target: T16, soluble HLA-A*2902; experiment: FP screen of 53 sHLA with FITC-peptide; remark: listed apart in the source
soluble HLA-A*3601 [39] = molecular target: T3, soluble HLA-A*3601; experiment: FP screen of 53 sHLA with FITC-peptide
soluble HLA-A*3402 [40] = molecular target: T17, soluble HLA-A*3402; experiment: FP screen of 53 sHLA with FITC-peptide; remark: listed apart in the source
soluble HLA-A*2601 [41] = molecular target: T4, soluble HLA-A*2601; experiment: FP screen of 53 sHLA with FITC-peptide
soluble HLA-B*1501 [42] = molecular target: T18, soluble HLA-B*1501; experiment: FP screen of 53 sHLA with FITC-peptide; remark: listed apart in the source

SLFRAVIKK (also: FITC-labeled, position not given here) [SLFRAVIKK, FITC-labeled A3-like peptide]: no binding (tested: 100 ug/ml sHLA) [1]; no binding (tested: 100 ug/ml sHLA) [2]; no binding (tested: 100 ug/ml sHLA) (soluble HLA-A*0101 [3]). SLFRAVIKK (also: FITC-labeled, position not given here) [SLFRAVIKK, FITC-labeled A3-like peptide]: no binding (tested: 100 ug/ml sHLA) (soluble HLA-A*3601 [4]); no binding (tested: 100 ug/ml sHLA) (soluble HLA-A*2601 [5]); no binding (tested: 100 ug/ml sHLA) (soluble HLA-B*1512 [6]). SLFRAVIKK (also: FITC-labeled, position not given here) [SLFRAVIKK, FITC-labeled A3-like peptide]: no binding (tested: 100 ug/ml sHLA) [7]; no binding (tested: 100 ug/ml sHLA) (soluble HLA-A*2402 [8]); no binding (tested: 100 ug/ml sHLA) (soluble HLA-A*2301 [9]). SLFRAVIKK (also: FITC-labeled, position not given here) [SLFRAVIKK, FITC-labeled A3-like peptide]: no binding (tested: 100 ug/ml sHLA) (soluble HLA-B*4501 [10]); no binding (tested: 100 ug/ml sHLA) (soluble HLA-A*3002 [11]); no binding (tested: 100 ug/ml sHLA) (soluble HLA-B*1801 [12]). SLFRAVIKK (also: FITC-labeled, position not given here) [SLFRAVIKK, FITC-labeled A3-like peptide]: no binding (tested: 100 ug/ml sHLA) (soluble HLA-B*4002 [13]); no binding (tested: 100 ug/ml sHLA) (soluble HLA-B*4001 [14]); no binding (tested: 100 ug/ml sHLA) (soluble HLA-B*4402 [15]). SLFRAVIKK (also: FITC-labeled, position not given here) [SLFRAVIKK, FITC-labeled A3-like peptide]: no binding (tested: 100 ug/ml sHLA) [16]; binds (soluble HLA-A*2902 [17]); binds (soluble HLA-A*3402 [18]). SLFRAVIKK (also: FITC-labeled, position not given here) [SLFRAVIKK, FITC-labeled A3-like peptide]: binds (soluble HLA-B*1501 [19]); binds (soluble HLA-A*0301 [20]); binds (soluble HLA-A*6601 [21]).

YTDGVPLKY (also: FITC-labeled, position not given here) [YTDGVPLKY, FITC-labeled A1-like peptide]: no binding (tested: 100 ug/ml sHLA) [22]; no binding (tested: 100 ug/ml sHLA) [23]; no binding (tested: 100 ug/ml sHLA) [24]. YTDGVPLKY (also: FITC-labeled, position not given here) [YTDGVPLKY, FITC-labeled A1-like peptide]: no binding (tested: 100 ug/ml sHLA) (soluble HLA-B*1302); no binding (tested: 100 ug/ml sHLA) (soluble HLA-B*1512 [25]); no binding (tested: 100 ug/ml sHLA) (soluble HLA-A*0301 [26]). YTDGVPLKY (also: FITC-labeled, position not given here) [YTDGVPLKY, FITC-labeled A1-like peptide]: no binding (tested: 100 ug/ml sHLA) [27]; no binding (tested: 100 ug/ml sHLA) (soluble HLA-A*2402 [28]); no binding (tested: 100 ug/ml sHLA) (soluble HLA-A*2301 [29]). YTDGVPLKY (also: FITC-labeled, position not given here) [YTDGVPLKY, FITC-labeled A1-like peptide]: no binding (tested: 100 ug/ml sHLA) (soluble HLA-A*6601 [30]); no binding (tested: 100 ug/ml sHLA) (soluble HLA-B*4501 [31]); no binding (tested: 100 ug/ml sHLA) (soluble HLA-A*3002 [32]). YTDGVPLKY (also: FITC-labeled, position not given here) [YTDGVPLKY, FITC-labeled A1-like peptide]: no binding (tested: 100 ug/ml sHLA) (soluble HLA-B*1801 [33]); no binding (tested: 100 ug/ml sHLA) (soluble HLA-B*4002 [34]); no binding (tested: 100 ug/ml sHLA) (soluble HLA-B*4001 [35]). YTDGVPLKY (also: FITC-labeled, position not given here) [YTDGVPLKY, FITC-labeled A1-like peptide]: no binding (tested: 100 ug/ml sHLA) (soluble HLA-B*4402 [36]); binds (soluble HLA-A*0101 [37]); binds (soluble HLA-A*2902 [38]). YTDGVPLKY (also: FITC-labeled, position not given here) [YTDGVPLKY, FITC-labeled A1-like peptide]: binds (soluble HLA-A*3601 [39]); binds (soluble HLA-A*3402 [40]); binds (soluble HLA-A*2601 [41]). YTDGVPLKY (also: FITC-labeled, position not given here) [YTDGVPLKY, FITC-labeled A1-like peptide]: binds (soluble HLA-B*1501 [42]).
